Results published in US20160115500A1 (University of California, published 2016).
Substitutions are numbered along the chain they refer to. Names and notes keep the numbering of the source.

T1: GAL4 activation domain fusion (ACT) to HAB1 (UniProt Q9CAJ0 23-511, limits assumed)
T1 construct: pACT-HAB1 fusion in yeast reporter strains; also called pACT-HAB1
T1 sequence (looked up): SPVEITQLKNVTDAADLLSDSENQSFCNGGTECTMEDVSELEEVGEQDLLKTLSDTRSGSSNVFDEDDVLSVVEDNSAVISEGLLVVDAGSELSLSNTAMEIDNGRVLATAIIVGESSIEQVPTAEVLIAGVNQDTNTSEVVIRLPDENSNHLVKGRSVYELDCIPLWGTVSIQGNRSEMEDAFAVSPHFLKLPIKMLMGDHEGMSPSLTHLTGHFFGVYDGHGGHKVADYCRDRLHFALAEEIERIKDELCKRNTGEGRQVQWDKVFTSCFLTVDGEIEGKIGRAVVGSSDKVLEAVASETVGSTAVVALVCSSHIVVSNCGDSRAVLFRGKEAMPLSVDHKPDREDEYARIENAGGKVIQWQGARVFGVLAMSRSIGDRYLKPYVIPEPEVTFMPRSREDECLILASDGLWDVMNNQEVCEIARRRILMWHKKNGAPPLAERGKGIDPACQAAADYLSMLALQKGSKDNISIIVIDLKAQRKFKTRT

B1: PYR1^K59R,A89I,S92I (receptor)
chain: MPSELTPEERSELKNSIAEFHTYQLDPGSCSSLHAQRIHAPPELVWSIVRRFDKPQTYRHFIKSCSVEQNFEMRVGCTRDVIVISGLPINTITERLDILDDERRVTGFSIIGGEHRLTNYKSVTTVHRFEKENRIWTVVLESYVVDMPEGNSEDDTRMFADTVVKLNLQKLATVAEAMARNSGDGSGSQVT
notes: pBD-PYR1 fusion in yeast
B2: PYR1^K59R,A89I (receptor)
chain: B1 chain with I92S
notes: pBD-PYR1 fusion in yeast
B3: PYR1^K59R,T162K (receptor, not shown: small tags and cut ends)
chain: B1 chain with I89A, I92S, T162K
notes: pBD-PYR1 fusion in yeast
B4: PYR1^K59R,V83L (receptor, not shown: small tags and cut ends)
chain: B1 chain with V83L, I89A, I92S
notes: pBD-PYR1 fusion in yeast
B5: PYR1^K59R,V164Y (receptor, not shown: small tags and cut ends)
chain: B1 chain with I89A, I92S, V164Y
notes: pBD-PYR1 fusion in yeast
B6: PYR1^K59R,V164K (receptor, not shown: small tags and cut ends)
chain: B1 chain with I89A, I92S, V164K
notes: pBD-PYR1 fusion in yeast
B7: PYR1^K59R,M158I (receptor, not shown: small tags and cut ends)
chain: B1 chain with I89A, I92S, M158I
notes: pBD-PYR1 fusion in yeast
B8: PYR1^K59R,E141Y (receptor)
chain: B1 chain with I89A, I92S, E141Y
notes: pBD-PYR1 fusion in yeast
B9: PYR1^K59R,N167C (receptor, not shown: small tags and cut ends)
chain: B1 chain with I89A, I92S, N167C
notes: pBD-PYR1 fusion in yeast
B10: PYR1^K59R,L87P (receptor, not shown: small tags and cut ends)
chain: B1 chain with L87P, I89A, I92S
notes: pBD-PYR1 fusion in yeast
B11: PYR1^K59R,T162Y (receptor, not shown: small tags and cut ends)
chain: B1 chain with I89A, I92S, T162Y
notes: pBD-PYR1 fusion in yeast
B12: PYR1^K59R,F159I (receptor, not shown: small tags and cut ends)
chain: B1 chain with I89A, I92S, F159I
notes: pBD-PYR1 fusion in yeast; also called K59R F1591
B13: PYR1^K59R,E94D (receptor, not shown: small tags and cut ends)
chain: B1 chain with I89A, I92S, E94D
notes: pBD-PYR1 fusion in yeast
B14: PYR1^K59R,F159L (receptor, not shown: small tags and cut ends)
chain: B1 chain with I89A, I92S, F159L
notes: pBD-PYR1 fusion in yeast
B15: PYR1^K59R,A160C (receptor, not shown: small tags and cut ends)
chain: B1 chain with I89A, I92S, A160C
notes: pBD-PYR1 fusion in yeast
B16: PYR1^K59R,N167H (receptor, not shown: small tags and cut ends)
chain: B1 chain with I89A, I92S, N167H
notes: pBD-PYR1 fusion in yeast
B17: PYR1^K59R,E94A,Y120A (receptor, not shown: small tags and cut ends)
chain: B1 chain with I89A, I92S, E94A, Y120A
notes: pBD-PYR1 fusion in yeast
B18: PYR1^K59R,F159T (receptor, not shown: small tags and cut ends)
chain: B1 chain with I89A, I92S, F159T
notes: pBD-PYR1 fusion in yeast
B19: PYR1^K59R,Y120A (receptor, not shown: small tags and cut ends)
chain: B1 chain with I89A, I92S, Y120A
notes: pBD-PYR1 fusion in yeast
B20: PYR1^K59R,Y120A,N167C (receptor, not shown: small tags and cut ends)
chain: B1 chain with I89A, I92S, Y120A, N167C
notes: pBD-PYR1 fusion in yeast
B21: PYR1^K59R,V81Y (receptor, not shown: small tags and cut ends)
chain: B1 chain with V81Y, I89A, I92S
notes: pBD-PYR1 fusion in yeast
B22: PYR1^K59R,S92F (receptor, not shown: small tags and cut ends)
chain: B1 chain with I89A, I92F
notes: pBD-PYR1 fusion in yeast
B23: PYR1^K59R,F159A (receptor, not shown: small tags and cut ends)
chain: B1 chain with I89A, I92S, F159A
notes: pBD-PYR1 fusion in yeast
B24: PYR1^K59R,Y120M (receptor, not shown: small tags and cut ends)
chain: B1 chain with I89A, I92S, Y120M
notes: pBD-PYR1 fusion in yeast
B25: PYR1^K59R,Y120A,E141Y (receptor, not shown: small tags and cut ends)
chain: B1 chain with I89A, I92S, Y120A, E141Y
notes: pBD-PYR1 fusion in yeast
B26: PYR1^K59R,Y120F (receptor, not shown: small tags and cut ends)
chain: B1 chain with I89A, I92S, Y120F
notes: pBD-PYR1 fusion in yeast
B27: PYR1^K59R,V81I (receptor, not shown: small tags and cut ends)
chain: B1 chain with V81I, I89A, I92S
notes: pBD-PYR1 fusion in yeast
B28: PYR1^K59R,E94S (receptor, not shown: small tags and cut ends)
chain: B1 chain with I89A, I92S, E94S
notes: pBD-PYR1 fusion in yeast
B29: PYR1^K59R,N167V (receptor, not shown: small tags and cut ends)
chain: B1 chain with I89A, I92S, N167V
notes: pBD-PYR1 fusion in yeast
B30: PYR1^K59R,F108L (receptor)
chain: B1 chain with I89A, I92S, F108L
notes: pBD-PYR1 fusion in yeast
B31: PYR1^K59R,Y120G (receptor, not shown: small tags and cut ends)
chain: B1 chain with I89A, I92S, Y120G
notes: pBD-PYR1 fusion in yeast
B32: PYR1^K59R,F159M (receptor, not shown: small tags and cut ends)
chain: B1 chain with I89A, I92S, F159M
notes: pBD-PYR1 fusion in yeast
B33: PYR1^K59R,F159C (receptor, not shown: small tags and cut ends)
chain: B1 chain with I89A, I92S, F159C
notes: pBD-PYR1 fusion in yeast
B34: PYR1^K59R,A89C (receptor, not shown: small tags and cut ends)
chain: B1 chain with I89C, I92S
notes: pBD-PYR1 fusion in yeast
B35: PYR1^K59R,A89C,L117C (receptor)
chain: B1 chain with I89C, I92S, L117C
notes: pBD-PYR1 fusion in yeast
B36: PYR1^K59R,A160G,L117C (receptor)
chain: B1 chain with I89A, I92S, L117C, A160G
notes: pBD-PYR1 fusion in yeast
B37: PYR1^K59R,L117C,V164K (receptor)
chain: B1 chain with I89A, I92S, L117C, V164K
notes: pBD-PYR1 fusion in yeast
B38: PYR1^K59R,E141Y,A160G (receptor)
chain: B1 chain with I89A, I92S, E141Y, A160G
notes: pBD-PYR1 fusion in yeast
B39: PYR1^K59R,L117C (receptor, not shown: small tags and cut ends)
chain: B1 chain with I89A, I92S, L117C
notes: pBD-PYR1 fusion in yeast
B40: PYR1^K59R,A160G (receptor, not shown: small tags and cut ends)
chain: B1 chain with I89A, I92S, A160G
notes: pBD-PYR1 fusion in yeast
B41: PYR1^K59R,A89C,A160G (receptor, not shown: small tags and cut ends)
chain: B1 chain with I89C, I92S, A160G
notes: pBD-PYR1 fusion in yeast
B42: PYR1^K59R,A160G,V164K (receptor)
chain: B1 chain with I89A, I92S, A160G, V164K
notes: pBD-PYR1 fusion in yeast
B43: PYR1^K59R,A89C,V164K (receptor, not shown: small tags and cut ends)
chain: B1 chain with I89C, I92S, V164K
notes: pBD-PYR1 fusion in yeast
B44: PYR1^K59R,A89C,E141Y (receptor, not shown: small tags and cut ends)
chain: B1 chain with I89C, I92S, E141Y
notes: pBD-PYR1 fusion in yeast
B45: PYR1^K59R,E141K (receptor, not shown: small tags and cut ends)
chain: B1 chain with I89A, I92S, E141K
notes: pBD-PYR1 fusion in yeast

Each binder was assayed against T1, GAL4 activation domain fusion (ACT) to … (assay: yeast two-hybrid, X-gal; lowest benoxacor concentration giving signal).
Experimental: The set of 475 mutant plasmids were individually transformed into the Y190 yeast two hybrid reporter strain co-transformed with pACT-HAB1, as previously described (Park et al., 2009). The yeast strains generated were arrayed into 96-well plates yielding what we refer to as the “pocket library”. The pocket library strains were spotted onto agar plates containing selective synthetic dextrose (minus Leu & Trp) medium that was supplemented with a single test compound at 100 μM. The pocket library strains were separately tested for responsiveness to the following compounds: dichlobenil, benzothiadiazole, mandipropamid, fludioxonil, and benoxacor. After incubating test plates at 30° C. for two days, colonies were chloroform lysed and stained to reveal β-galactosidase expression levels, using previously described methods (Park et al., 2009). Mutants displaying responsiveness to the test compound, if present, were identified by virtue of X-gal staining and then subjected to subsequent optimization efforts. Using this approach we identified mutations that conferred detectable sensitivity to the compounds tested (see entries labeled “Pocket Library Screens” in Table 1).

| Binder | Threshold [µM] |
| --- | --- |
| B1 | 50 |
| B2 | 100 |

Each binder was assayed against T1, GAL4 activation domain fusion (ACT) to … (assay: yeast two-hybrid, X-gal; lowest dichlobenil concentration giving signal).

| Binder | Threshold [µM] |
| --- | --- |
| B3 | 100 |
| B4 | 100 |
| B5 | 100 |
| B6 | 100 |
| B7 | 100 |
| B8 | 100 |
| B9 | 100 |
| B10 | 100 |
| B11 | 100 |
| B12 | 100 |
| B13 | 100 |
| B14 | 100 |
| B15 | 100 |

What follows are binders tested against T1, GAL4 activation domain fusion (ACT) to … (assay: yeast two-hybrid, X-gal; lowest fludioxonil concentration giving signal).

| Binder | Threshold [µM] |
| --- | --- |
| B16 | 100 |
| B4 | 100 |
| B17 | 10 |
| B18 | 100 |
| B19 | 100 |
| B20 | 10 |
| B21 | 100 |
| B6 | 100 |
| B22 | 100 |
| B23 | 100 |
| B7 | 100 |
| B24 | 100 |
| B8 | 100 |
| B25 | 10 |
| B26 | 100 |
| B27 | 100 |
| B28 | 100 |
| B9 | 100 |
| B29 | 100 |
| B10 | 100 |
| B30 | 100 |
| B13 | 100 |
| B31 | 100 |
| B15 | 100 |

Each binder was assayed against T1, GAL4 activation domain fusion (ACT) to … (assay: yeast two-hybrid, X-gal; lowest mandipropamid concentration giving signal).

| Binder | Threshold [µM] |
| --- | --- |
| B32 | 100 |
| B18 | 100 |
| B23 | 100 |
| B33 | 100 |
| B12 | 100 |
| B30 | 100 |
| B14 | 100 |

These binders were tested against T1, GAL4 activation domain fusion (ACT) to … (assay: yeast two-hybrid, X-gal; lowest benzothiadiazole concentration giving signal).

| Binder | Threshold [µM] |
| --- | --- |
| B34 | 100 |
| B3 | 100 |
| B35 | 25 |
| B4 | 100 |
| B32 | 100 |
| B18 | 100 |
| B5 | 100 |
| B6 | 100 |
| B23 | 100 |
| B7 | 100 |
| B8 | 100 |
| B36 | 25 |
| B37 | 100 |
| B33 | 100 |
| B38 | 5 |
| B27 | 100 |
| B39 | 100 |
| B40 | 100 |
| B41 | 5 |
| B42 | 5 |
| B11 | 100 |
| B43 | 0.2 |
| B44 | 0.2 |
| B45 | 100 |
| B12 | 100 |
| B14 | 100 |
